The values that follow come from patent publication US20240068024, “NUCLEIC ACID FRAGMENT AND USE THEREOF” (KYUSHU UNIVERSITY, NATIONAL UNIVERSITY CORPORATION, published 2024).

One series has as its target T7 RNA polymerase (UniProt P00573 P00573:1-883). The series can be described thus: in situ transcription after Tn5 insertion in mouse liver section, library band 200-400 bp; 37 C overnight; no UV needed.
Another series deals with Tn5 transposase (UniProt Q46731 Q46731:1-476). The series can be described thus: in situ transposition, 5 mM MgCl2, TAPS-DMF pH 8.5, 37 C; library band 200-400 bp. As to conditions: chain copies: 2 (stated, dimer). On the procedure:
PBS was removed, 100 μL of a Tn5 solution (150 ng/well in 1×Tn5 dialysis buffer) was added thereto, and the mixture was allowed to stand at room temperature for 1 hour. The composition of the 1×Tn5 dialysis buffer was formed of 50 mM HEPES-KOH (pH 7.2), 0.1 M NaCl, 0.1 mM EDTA, 1 mM DTT, 0.1% Triton X-100, and 10% glycerol. As a result, the transposase was bound to the transposase binding sequence of the double-stranded nucleic acid fragment of each ChIL probe.
Subsequently, the 1×Tn5 dialysis buffer was removed, […] of a 1×TAPS-DMF buffer (10 mM TAPS-NaOH (pH 8.5), 5 mM MgCl₂, 10% N,N-dimethylformamide) was added thereto, and the mixture was allowed to stand at 37° C. for 1 hour. With this, the transposase bound to the double-stranded nucleic acid fragment of the ChIL probe was activated, and the double-stranded nucleic acid fragment of the ChIL probe was inserted in the vicinity of the binding region of the lysine 27 acetylation modified histone H3 on the genomic DNA.

Tn5 transposase, sequence (Q46731 whole entry, the tested form may be a part, one chain of several): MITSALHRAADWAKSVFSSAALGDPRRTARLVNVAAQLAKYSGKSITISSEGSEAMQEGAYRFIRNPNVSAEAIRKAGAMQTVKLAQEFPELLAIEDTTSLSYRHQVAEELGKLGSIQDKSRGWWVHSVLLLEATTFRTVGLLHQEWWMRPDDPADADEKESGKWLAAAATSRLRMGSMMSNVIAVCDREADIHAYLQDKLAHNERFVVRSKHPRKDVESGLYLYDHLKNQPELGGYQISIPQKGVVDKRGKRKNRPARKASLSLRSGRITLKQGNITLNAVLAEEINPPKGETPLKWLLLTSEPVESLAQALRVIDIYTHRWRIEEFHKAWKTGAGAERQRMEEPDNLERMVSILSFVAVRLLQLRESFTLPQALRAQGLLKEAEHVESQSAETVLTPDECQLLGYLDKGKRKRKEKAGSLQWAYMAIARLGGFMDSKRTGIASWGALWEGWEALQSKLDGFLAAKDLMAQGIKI
T7 RNA polymerase, sequence (P00573 whole entry, one chain of several): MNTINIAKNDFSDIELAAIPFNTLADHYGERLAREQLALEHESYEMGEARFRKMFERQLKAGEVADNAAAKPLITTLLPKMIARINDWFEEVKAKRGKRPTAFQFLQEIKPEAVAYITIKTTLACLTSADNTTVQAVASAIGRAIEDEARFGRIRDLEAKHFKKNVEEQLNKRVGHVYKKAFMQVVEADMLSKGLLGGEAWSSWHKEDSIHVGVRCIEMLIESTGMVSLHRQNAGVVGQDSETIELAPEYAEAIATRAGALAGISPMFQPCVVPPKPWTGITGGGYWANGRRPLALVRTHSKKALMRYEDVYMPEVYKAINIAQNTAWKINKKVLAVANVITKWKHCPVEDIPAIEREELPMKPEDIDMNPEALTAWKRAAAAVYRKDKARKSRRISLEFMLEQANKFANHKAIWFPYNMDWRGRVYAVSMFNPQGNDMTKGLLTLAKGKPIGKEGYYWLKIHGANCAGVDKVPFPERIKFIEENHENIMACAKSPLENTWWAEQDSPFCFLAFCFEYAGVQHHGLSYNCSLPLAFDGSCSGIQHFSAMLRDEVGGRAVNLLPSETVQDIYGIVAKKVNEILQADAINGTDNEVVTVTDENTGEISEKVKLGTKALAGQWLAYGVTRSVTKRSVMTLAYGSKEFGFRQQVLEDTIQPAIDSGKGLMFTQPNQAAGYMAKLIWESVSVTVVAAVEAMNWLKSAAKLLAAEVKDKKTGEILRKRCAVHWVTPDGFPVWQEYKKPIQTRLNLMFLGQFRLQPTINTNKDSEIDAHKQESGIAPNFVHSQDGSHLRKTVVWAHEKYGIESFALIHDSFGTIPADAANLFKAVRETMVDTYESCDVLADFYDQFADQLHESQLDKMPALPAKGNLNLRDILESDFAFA

B1: control ChIL probe (original) (dsDNA)
DNA 1: CCCATGCATTAATACGACTCACTATAGGGTAGATCGCTCGTCGGCAGCGTCAGATGTGTATAAGAGACAG
DNA 2: CTGTCTCTTATACACATCTGACGCTGCCGACGAGCGATCTACCCTATAGTGAGTCGTATTAATGCATGGG
modifications: 5'-azide on SEQ 1 (click-linked to DBCO-PEG5 anti-mouse IgG); 5'-phosphate on SEQ 2
Consider B1, for which the binding result in the series with T7 RNA polymerase and in the series with Tn5 transposase was “binds” each time.
